The labels stand for the following.
B1: ADI-18932 (antibody, V domains shown)
VH: QVQLQESGPGLVRPSQTLSLTCSASGAAINSGDYYWSWIRQAPGRGLEWIGSISNRGVTDYNPSLKSRVIISADTSKNQFSLRLTSVTATDTAVYYCARDLGTLAFDPYYYYGIDVWGQGTTVTVSS
VL: DIRMTQSPATLSLSPGERATLSCRASQSVSRHLAWYQQKPGQAPRLLIYDASYRVTGVPDRFSGSGSGTDFTLTISSLESEDFAIYFCQQRSTWPTFGQGTKVEIK
notes: full-length IgG from yeast
B2: ADI-18927 (antibody, V domains shown)
VH: QVQLVQSGAEVKKPGASVKVSCKASGYTFTDYFIHWVRQAPGEGLEWMGWVNPLSDNTKYSQKFQGRVTMSTDTSITTAYMYLSRLRFDDTAVYFCASQSSPYTPGALDVWGQGTTVTVSS
VL: DIQLTQSPSSLPASVGDRVTITCRASQNIGNNLAWYQQKAGRAPKLLIYSASNFHSGVPSRFIGSGSGTVFTLTISSLQPEDFATYFCQQSFTPQFTFGPGTKVEIK
notes: full-length IgG from yeast
B3: ADI-18935 (antibody, V domains shown)
VH: QVQLQESGPGLVKPSQTLSLTCTVSGRLLSSGDYYWSWIRQSPGRGLEWIGYVYHSGTTSYNPSLKSRITMTVDTSKNQFNLRLTSVTAADTAVYYCARDLGYSSSSPAFYYGIDFWGPGTMVTVSS
VL: EIVLTQSPATLSLSPGQRATLSCRASQSVGNYLAWYQQKPGQAPRLLIYDASNRVTGIPARFSGSGSGTDFTLTISRLESEDFAVYYCQQRSNGVLTFGGGTKVDIK
notes: full-length IgG from yeast
B4: ADI-18960 (antibody, V domains shown)
VH: QVQLQESGPGLVKPSETLSLTCSVSGGSITNVNYYWGWIRQPPGKGLEWIGSIYYNGNTYYNPSLQSRVTMSVDTSKNHFSLRLTSVTAADTAVYFCAREGPNWELLNAFDIWGQGTTVTVSS
VL: DIQVTQPPSVSVAPGQTARITCGGNNIGSKNVHWYQQKPGRAPVLVVYEDTHRPSGIPERFSGSNSGNTATLTISRVEAGDEADYYCQVWDTSSDHVVFGGGTKLTVL
notes: full-length IgG from yeast; also called Antibody Number 311; Ab # 311
B5: ADI-18937 (antibody, V domains shown)
VH: QVQLQESGPGLVKPSQTLSLTCTVSGPSISAGDYNWNWIRQAPGKGLEWVGYIDYRGLTHYNPSLKGRLSILMDRSANQFSLELNSVTAADTAVYYCARDVGVYSGYDVFHYYGMDVWGQGTTVTVSS
VL: ETTLTQSPVTLSLSPGERATLSCRASQYVRNNYLAWYQHKPGQAPRLLIYSASSRVTGTPDRFSGSGSGTDFTLTISRLEPEDFAVYYCQQYGGSPPVTFGPGTKVDIK
notes: full-length IgG from yeast; also called Antibody Number 290; Ab # 290
B6: ADI-18883 (antibody, V domains shown)
VH: QVQLVQSGPEVKKPGSSVTVSCKASGGTFSNYGIAWVRQAPGQGLEWMGSTIPILGTASYRQSLKDRVTITADASTTTVYMEMTRLRTEDTAVYFCARVPESLVASNAYAVWGQGTVVTVSS
VL: DIQMTQSPSSVSASVGDRVTITCRASQDISTWLAWYQQRPGKAPKLLIYTASSLQSGVPSRFSGSGSGTEFTLTISSLQPEDFATYYCQQGTSFPFTFGPGTKLEIK
notes: full-length IgG from yeast
B7: ADI-18928 (antibody, V domains shown)
VH: QVQLVQSGAEVKRPGSSVRVSCKASGGTFRKYAISWVRQARGQGLEWMGGIIPMSGPPSYAQKFQGRVTITADESTSTVYMELSSLRFEDTAVYFCARDIEWFVLMDPITSYYPMDVWGQGTTVTVSS
VL: QSVVTQEPSLTVSPGGTVTLTCGSSTGGVTSGHHTYWFQQKPGQAPRTLIYDTTNTHSWTPARFAGSLLGGKAALTLSGAQPEDEADYYCLLSYSGARPVFGGGTKLTVL
notes: full-length IgG from yeast
B8: ADI-18936 (antibody, V domains shown)
VH: EVQLLESGAEVKKPGASVRVSCKASGYTFTDYFMNWVRQAPGGGLEWMGWVNPLSGATKYAQKFQGRVTMTTDTSITTGYLDLRSLRVDDTAIYFCASQSSPYTPGAMGVWGQGTTVTVSS
VL: DIQVTQSPSSLSASVGDRVTITCRASQSISGYLSWYQQKPGKAPNLLIYATSNLYSGVPSRFSGRDSGTDFTLTITSLQPEDFATYFCQLNSGALFTFGPGTKVEIK
notes: full-length IgG from yeast
B9: ADI-18939 (antibody, V domains shown)
VH: QVQLQQWGAGLLKPSETLSLTCAVYGGSFSGYSWSWIRQSPGKGLEWIGEINHRGSTNYNPSLKSRVTISVDTSKNQFSLKLSSVTAADTAVYYCAGTNYGEVNTSNQYFFGMDVWGQGTTVTVSS
VL: DIRLTQSPSSLSASVGDRVTITCRASQSITTYLNWYQQKPGKAPKLLIYAASNLESGVPSSFSGSGFGTDFTLTISSLQPDDFATYYCQQSYSAPLTFGGGTKVDIK
notes: full-length IgG from yeast; also called Antibody Number 292; Ab # 292
B10: ADI-18958 (antibody, V domains shown)
VH: QVQLQESGAEVKMRGASVKVSCKASGYTFSHYGISWVRQAPGQGLEWMGFISAYNHNTKYAQTVQGRVTLSTDTSTSTAYMELRSLRPDDTAMYYCAREPPSDDAARLFDYWGQGTLVTVSS
VL: ETTLTQSPRSLPVTLGQPASISCRSSQSLVYSEGNTYLSWFQQRPGQSPRRLIYKVSNRDSGVPDRFSGSGSGTDFTLKISRVEAEDVGVYYCMQGTQWPVTFGQGTKVEIK
notes: full-length IgG from yeast
B11: ADI-18966 (antibody, V domains shown)
VH: QVQLVQSGGGVVQPGRSLRLSCAASGFTFRNYGMHWVRQAPGKGLEWVAAASYDGSSKYFADAVKGRFSISRDNTKNTLSLQMTSLRAEDTAVYYCARDPGVGSYYNVVGMDVWGQGTTVTVSS
VL: DIRLTQSPLSLPVTLGQPASISCRSSQSLVYSDGNTYLNWFQQRPGQSPRRLIYRVSHRDSGVPDRFSGSESGTDFTLKISRVEAEDVGVYYCMQGTHWPPTFGQGTKVEIK
notes: full-length IgG from yeast
B12: ADI-18880 (antibody, V domains shown)
VH: QVQLVQSGSEVKKPGAAVKVSCKASGYIFANFGVSWVRQAPGQGLEWMGWISAYNGNTNYAQKFQGRVIMTTDTSTSTAYMELRSLRSDDTAVYYCARDPPAYAATLMDVWGKGTTVTVSS
VL: EIVLTQSPLSLPVTLGQSASISCRSSQSLEHSDTNTYLTWYQQRPGQSPRRLLYKVSNRDSGVPDRFSGSGSGTDFTLKISRVEAEDVGVYYCMQGTHWPPTFGQGTKVDIK
notes: full-length IgG from yeast
B13: ADI-18904 (antibody, V domains shown)
VH: B12 VH with Q1E, Q6E
VL: B12 VL with E1D, L4M, V109L, D110E
notes: full-length IgG from yeast; also called Antibody Number 259; Ab # 259
B14: ADI-18930 (antibody, V domains shown)
VH: QVQLVQSGAEVKKPGSSVKVSCKASGGTFSGYHISWVRQAPGQGLEWMGGIIHLFGTVNYAPKFQGRVTITADASTGTAYMELNSLMSEDTAVYYCARDAYEVWTGSYLPPFDYWGQGTLVTVSS
VL: EIVLTQSPGTLSLSPGERVTLSCRASQTVTSSYLAWYQQKPGQAPRLLIYGAFTRATDIPDRFSGSGSGTDFTLTISRLEPEDSAVYYCQQYGSSFLTFGGGTKVDIK
notes: full-length IgG from yeast
B15: ADI-18882 (antibody, V domains shown)
VH: QVQLVQSGAEVKKPGSSVRVSCKASGGTFRGYGLSWVRQAPGQGLEWMGGITHLFGTVSYAPKFQGRLTITADASTGTAYMELSSLISEDTAVYFCARDAYEVWTGSYLPPFDYWGQGTMVTVSS
VL: B14 VL with E1D, L4M, T28I, V29I, T30P, S84F, D106E
notes: full-length IgG from yeast
B16: ADI-18953 (antibody, V domains shown)
VH: B14 VH with H33A, S35N, L54I, V68L, N84S, V93L
VL: B14 VL with I2T, V3T, S32N, G51D, D58G, I59V, D61A, S84F, D106E
notes: full-length IgG from yeast

This is an account of results in patent publication US20200223906A1 (Adimab, published 2020).

By Kd is commonly meant the constant that tells how readily two partners part at equilibrium. Read a high Kd as weaker binding.

Residue numbers refer to the chain shown, from its start.

In the first experiment the target is T1, RSV F subtype B, furin-cleaved ectodomain stabilized in the prefusion conformation (DS-Cav1) (Respiratory syncytial virus subtype B).
T1 construct: extracellular domain; Trimeric soluble antigen; also called Prefusion subtype B
Description: BLI, IgG on AHQ sensor, 100 nM antigen. On the technique in general: In BLI a coated tip is dipped into the sample, and binding shifts an interference pattern.
Take B1: binding was put at a Kd of 1.39 nM.
For B2, the Kd amounted to 2.99 nM.
B3 gave a Kd of 0.582 nM.
Same read-out and setting: in the case of B4 it was 0.183 nM.
On the same count and under the same terms, in the case of B5 it was 0.273 nM; in that of B6, 0.566 nM; in that of B7, 0.515 nM.
B8 registered an equilibrium dissociation constant (Kd) of 0.298 nM.
Still for that read-out and setting: then B9, with 0.56 nM; and B10, with 0.302 nM; and B11, with 0.562 nM.
On the same count and under the same terms, then B12, with 0.304 nM.
In the case of B13, the dissociation constant (Kd) was 0.237 nM.
The same measure, in the same setting: then B14, with 0.372 nM.
The same measure, in the same setting: in the case of B15 it was 0.476 nM; in that of B16, 0.421 nM.

The target of a further experiment is T2, RSV F subtype A, furin-cleaved ectodomain stabilized in the prefusion conformation (DS-Cav1) (Respiratory syncytial virus subtype A, UniProt P03420 26-524).
T2 construct: extracellular domain; Trimeric soluble antigen; also called Prefusion subtype A
Description: BLI, IgG on AHQ sensor, 100 nM antigen.
In the case of B1, the Kd stood at 0.917 nM.
B2: the Kd is 3.58 nM.
The same measure, in the same setting: in the case of B3 it was 0.66 nM; in that of B4, 0.178 nM; in that of B5, 0.289 nM.
With B6, the Kd worked out at 0.431 nM.
On the same count and under the same terms, then B7, with 0.449 nM; and B8, with 0.303 nM; and B9, with 0.574 nM.
Same read-out and setting: in the case of B10 it was 0.286 nM.
As for B11, binding was put at a Kd of 0.578 nM.
The same measure, in the same setting: then B12, with 0.255 nM; and B13, with 0.251 nM; and B14, with 0.387 nM.
Regarding B15, the Kd came out at 0.427 nM.
Same read-out and setting: then B16, with 0.513 nM.

In the next experiment the target is RSV F protein of subtype B (18537) on recombinant mKate-RSV virus (Respiratory syncytial virus subtype B …, UniProt P13843 26-574). The experiment is described as follows: cell-based or functional assay.
For B1, the “Neut IC50 (µg/ml) subtype B” value is 0.351 µg/mL.
On the same count and under the same terms, in the case of B2 it was 0.067 µg/mL; in that of B3, 0.355 µg/mL.
Consider B4, for which the “Neut IC50 (µg/ml) subtype B” value came out at 0.107 µg/mL.
Consider B5, for which the “Neut IC50 (µg/ml) subtype B” value worked out at 0.508 µg/mL.
As to B6, the “Neut IC50 (µg/ml) subtype B” value came out at 0.05 µg/mL.
The same measure, in the same setting: then B7, with 0.062 µg/mL; and B8, with 0.035 µg/mL.
Same read-out and setting: in the case of B9 it was 0.038 µg/mL.
B10: the “Neut IC50 (µg/ml) subtype B” value turned out to be 3.36 µg/mL.
Still for that read-out and setting: then B11, with 0.13 µg/mL; and B12, with 0.055 µg/mL; and B13, with 0.089 µg/mL.
Turning to B14, the “Neut IC50 (µg/ml) subtype B” value turned out to be 0.051 µg/mL.
Same read-out and setting: then B15, with 0.057 µg/mL; and B16, with 0.022 µg/mL.

For a further experiment, the target named is RSV F protein of subtype A (strain A2) on recombinant mKate-RSV virus (Respiratory syncytial virus subtype A …, UniProt P03420 26-574). The experiment is described as follows: cell-based or functional assay.
On to B1, for which the “Neut IC50 (µg/ml) subtype A” value came to 0.184 µg/mL.
Still for that read-out and setting: in the case of B2 it was 0.022 µg/mL.
On the same count and under the same terms, in the case of B3 it was 0.779 µg/mL; in that of B4, 0.034 µg/mL; in that of B5, 0.084 µg/mL.
For the molecule B6, the “Neut IC50 (µg/ml) subtype A” value is 0.041 µg/mL.
Still for that read-out and setting: then B7, with 0.034 µg/mL.
Same read-out and setting: then B8, with 0.032 µg/mL; and B9, with 0.018 µg/mL; and B10, with 0.587 µg/mL.
On the same count and under the same terms, then B11, with 0.044 µg/mL.
For the molecule B12, the “Neut IC50 (µg/ml) subtype A” value is 0.041 µg/mL.
On to B13, for which the “Neut IC50 (µg/ml) subtype A” value was 0.018 µg/mL.
B14: the “Neut IC50 (µg/ml) subtype A” value turned out to be 0.013 µg/mL.
Still for that read-out and setting: then B15, with 0.041 µg/mL; and B16, with 0.034 µg/mL.
